Key:
[1] = molecular target: T1, Full length Mouse TfR on CHO cells (mouse, UniProt Q62351 1-763); assay: FACS MFI, supernatant
T1 construct: also called CHO + muTfR
Procedure: (§1) A total of 1536 anti-TfR hybridoma supernatants were initially screened for their ability to differentially bind CHO cells overexpressing human or mouse TfR cells compared to CHO parental cells by FACS. Overexpressing cells were harvested, washed and labeled with Pacific Blue, FITC and Pacific Orange dyes (ThermoFisher) to create uniquely barcoded cell populations. Barcoded cells (5×10⁴ of each cell population) were aliquoted into 96-well U-bottom plates and incubated with 50 μl of hybridoma cell culture supernatant or […] of commercially available purified mouse anti-human TfR monoclonal antibody (Sigma Aldrich, Cat #SAB4700515) and rat anti-mouse TfR antibody (Invitrogen, Waltham, MA, Cat #R17217) on ice for 30 minutes. After this primary incubation, the supernatants were removed via centrifugation, the cells were washed twice with 175 μl of ice-cold FACS buffer (PBS+1% FBS+2 mM EDTA), and the cells were then further incubated on ice for 20 minutes with anti-mouse IgG Fc-allophycocyanin (APC) or anti-rat IgG Fc-APC (Jackson Labs, Cat #115-136-071 and Cat #112-136-071, respectively) (diluted 1:1000). Following this secondary antibody incubation, the cells were again washed twice with ice-cold FACS buffer and resuspended in a final volume of 50 μl of FACS buffer. Binding intensity on cells was analyzed using the FACS Canto system (BD Biosciences), and the ratio of APC Mean Fluorescence Intensity (MFI) on each barcoded cell population was determined for each anti-TfR hybridoma supernatant tested.

[2] = molecular target: T2, Full length human TfR on CHO cells (human, UniProt P02786 1-760); assay: FACS MFI, supernatant
T2 construct: also called CHO + huTfR; CHO + hTfR
T2 sequence (P02786 whole entry): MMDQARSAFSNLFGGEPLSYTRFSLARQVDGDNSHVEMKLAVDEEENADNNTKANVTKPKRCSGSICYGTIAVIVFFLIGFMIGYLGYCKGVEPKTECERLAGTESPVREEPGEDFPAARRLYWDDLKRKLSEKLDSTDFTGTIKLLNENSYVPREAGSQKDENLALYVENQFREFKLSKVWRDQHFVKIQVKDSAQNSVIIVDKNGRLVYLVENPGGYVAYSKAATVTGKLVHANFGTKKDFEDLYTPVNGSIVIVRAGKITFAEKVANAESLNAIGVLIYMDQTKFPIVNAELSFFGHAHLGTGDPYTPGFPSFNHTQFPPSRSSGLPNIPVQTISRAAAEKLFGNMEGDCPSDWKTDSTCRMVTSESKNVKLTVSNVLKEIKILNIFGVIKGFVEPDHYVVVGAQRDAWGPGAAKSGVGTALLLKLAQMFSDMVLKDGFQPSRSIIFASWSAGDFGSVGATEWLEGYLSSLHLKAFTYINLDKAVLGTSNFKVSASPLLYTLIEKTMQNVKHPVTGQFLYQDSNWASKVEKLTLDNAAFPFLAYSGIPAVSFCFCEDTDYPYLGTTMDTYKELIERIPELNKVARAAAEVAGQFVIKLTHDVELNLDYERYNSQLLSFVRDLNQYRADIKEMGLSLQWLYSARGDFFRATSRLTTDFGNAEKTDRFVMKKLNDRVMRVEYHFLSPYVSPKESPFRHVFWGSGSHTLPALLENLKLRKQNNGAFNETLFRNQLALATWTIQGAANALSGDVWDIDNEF
Procedure: as §1

[3] = molecular target: T3, huTfR Apical Domain-Avi-His (human, biotin on the Avi tag (BirA) where captured on streptavidin); assay: ELISA OD450, supernatant
T3 construct: also called huTfR apical Avi-His; hTfR Apical
T3 chain: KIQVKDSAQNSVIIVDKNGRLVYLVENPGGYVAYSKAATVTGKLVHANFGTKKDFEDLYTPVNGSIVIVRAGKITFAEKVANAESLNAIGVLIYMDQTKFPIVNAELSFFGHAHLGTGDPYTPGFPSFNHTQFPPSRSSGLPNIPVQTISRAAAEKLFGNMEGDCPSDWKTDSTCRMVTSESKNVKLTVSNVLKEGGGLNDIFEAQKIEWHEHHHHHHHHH
Procedure: Hybridoma culture supernatants from 319 hybridomas obtained as described above were screened for their ability to bind Avi-His-tagged huTfR ECD, huTfR apical domain, and muTfR ECD (as described in Example 1) as compared to binding to an irrelevant Avi-His-tagged control protein. Briefly, 96-well polystyrene plates were coated with 5 μg/ml of streptavidin (Thermo Fisher, Cat #PI21125) in coating buffer (0.05M carbonate buffer, pH 9.6, Sigma, Cat #C3041) overnight at 4° C. Coated plates were then blocked with ELISA diluent (PBS+0.5% BSA+0.05% Tween20) for one hour. Blocking buffer was removed and Avi-His-tagged human TfR, human TfR apical domain, mouse TfR and an irrelevant Avi-His-tagged protein were added at 1 μg/ml in ELISA diluent and captured for 1 hour at room temperature. After washing three times with 300 μl of PBST (PBS+0.05% Tween20, Thermo 28352), the hybridoma cell culture supernatants were added (50 μl/well) to each well. After 30 minutes of incubation at room temperature, the plates were washed three times with 300 μl of PBST. Anti-mouse IgG Fc-HRP or anti-rat IgG Fc-HRP (Jackson Immunoresearch, Cat #115-035-071 and 112-036-071, respectively) secondary antibodies were diluted 1:5000 in ELISA diluent, added to each well at 50 μl/well, and incubated for 30 minutes at room temperature with shaking. After a final set of washes (3×300 μl in PBST), 50 μl/well of BioFx TMB substrate (Surmodics, Cat #TMBW-1000-01) was added to the wells. The reaction was then quenched after 5-10 mins with 50 μl/well of 2N sulfuric acid. The plates were read for absorbance at 450 nm on a SpectraMax M5 (Molecular Devices, Sunnyvale, CA) using SoftMax Pro software.

[4] = molecular target: T1, Full length Mouse TfR on CHO cells; assay: FACS, CHO+muTfR
Procedure: as §1

T1 sequence (Q62351 whole entry): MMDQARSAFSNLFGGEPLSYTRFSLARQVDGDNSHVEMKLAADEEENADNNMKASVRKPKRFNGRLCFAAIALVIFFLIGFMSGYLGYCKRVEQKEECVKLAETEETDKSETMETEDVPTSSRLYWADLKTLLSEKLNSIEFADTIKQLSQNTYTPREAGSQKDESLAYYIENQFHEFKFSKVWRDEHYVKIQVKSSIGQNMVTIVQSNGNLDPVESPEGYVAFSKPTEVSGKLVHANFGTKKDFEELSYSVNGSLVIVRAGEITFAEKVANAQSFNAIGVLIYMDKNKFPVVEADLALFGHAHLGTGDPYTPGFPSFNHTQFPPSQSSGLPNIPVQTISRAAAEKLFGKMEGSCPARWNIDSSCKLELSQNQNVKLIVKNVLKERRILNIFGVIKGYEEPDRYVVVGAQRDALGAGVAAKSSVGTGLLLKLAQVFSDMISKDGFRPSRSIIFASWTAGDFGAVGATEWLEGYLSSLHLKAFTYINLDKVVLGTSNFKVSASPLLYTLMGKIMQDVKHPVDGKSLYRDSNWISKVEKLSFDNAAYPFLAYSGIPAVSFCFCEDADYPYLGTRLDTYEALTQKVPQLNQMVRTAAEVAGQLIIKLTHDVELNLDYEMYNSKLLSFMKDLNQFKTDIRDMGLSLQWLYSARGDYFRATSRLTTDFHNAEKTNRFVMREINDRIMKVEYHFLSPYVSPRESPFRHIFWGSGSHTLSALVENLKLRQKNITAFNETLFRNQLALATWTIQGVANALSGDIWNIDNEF

fold over parental (CHO WT) [1]: 1 fold
fold over parental (CHO WT) [2]: 137 fold
ratio over irrelevant protein [3]: 25 fold
binding result [4]: no binding
B1: TfR32 (mouse hybridoma antibody) (antibody, V domains shown)
VH: QVQLQQSGADLVRPGTSVKVSCKASGNAFSNYLIEWVKQRPGQGLEWIGVINPGSGETNYNEKFKGKATLTADKSSSTAYMQLSSLTSDDSAVYFCAIRYDGPLLDHWGQGTSVTVSS
VL: SIVMTQTPKFLLVSAGDRVTITCKASQSVSNDVAWFQQKPGQSPKLLIYYASNRYTGVPDRFTGSGYGTDFTFTIRNVQAEDLAVYFCQQDYISPTFGAGTKLELK
notes: mouse IgG in hybridoma supernatant
